Test [1] has as its target T1, C. jejuni 81–176 flagella (Campylobacter jejuni strain 81–176, biotin (Sulfo-NHS-LC-LC-biotin), in the SPR only | biotin (Sulfo-NHS-LC-LC-biotin), in the SPR only).
T1 construct: flagellin FlaA of C. jejuni strain 81–176; flagellin FlaB of C. jejuni strain 81–176; also called flagellin; flagella protein; source: purified from C. jejuni 81–176 (sheared, ultracentrifugation, 1% SDS wash); also on formalin-fixed C. jejuni 81–176 cells
T1 chain 1: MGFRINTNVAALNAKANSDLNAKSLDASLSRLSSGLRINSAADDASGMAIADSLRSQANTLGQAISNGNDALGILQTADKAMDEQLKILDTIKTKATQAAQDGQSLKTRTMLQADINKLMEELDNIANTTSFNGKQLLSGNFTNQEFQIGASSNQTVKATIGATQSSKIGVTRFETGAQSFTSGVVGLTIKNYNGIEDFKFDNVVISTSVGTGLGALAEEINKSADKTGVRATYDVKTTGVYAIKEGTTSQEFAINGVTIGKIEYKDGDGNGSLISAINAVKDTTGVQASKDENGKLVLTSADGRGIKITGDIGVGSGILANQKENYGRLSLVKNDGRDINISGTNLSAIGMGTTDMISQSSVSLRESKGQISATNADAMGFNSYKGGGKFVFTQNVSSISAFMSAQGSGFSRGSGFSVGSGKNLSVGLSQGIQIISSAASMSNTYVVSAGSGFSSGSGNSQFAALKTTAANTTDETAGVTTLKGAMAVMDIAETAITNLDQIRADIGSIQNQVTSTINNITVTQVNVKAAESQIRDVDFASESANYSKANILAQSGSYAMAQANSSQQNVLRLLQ
T1 chain 2: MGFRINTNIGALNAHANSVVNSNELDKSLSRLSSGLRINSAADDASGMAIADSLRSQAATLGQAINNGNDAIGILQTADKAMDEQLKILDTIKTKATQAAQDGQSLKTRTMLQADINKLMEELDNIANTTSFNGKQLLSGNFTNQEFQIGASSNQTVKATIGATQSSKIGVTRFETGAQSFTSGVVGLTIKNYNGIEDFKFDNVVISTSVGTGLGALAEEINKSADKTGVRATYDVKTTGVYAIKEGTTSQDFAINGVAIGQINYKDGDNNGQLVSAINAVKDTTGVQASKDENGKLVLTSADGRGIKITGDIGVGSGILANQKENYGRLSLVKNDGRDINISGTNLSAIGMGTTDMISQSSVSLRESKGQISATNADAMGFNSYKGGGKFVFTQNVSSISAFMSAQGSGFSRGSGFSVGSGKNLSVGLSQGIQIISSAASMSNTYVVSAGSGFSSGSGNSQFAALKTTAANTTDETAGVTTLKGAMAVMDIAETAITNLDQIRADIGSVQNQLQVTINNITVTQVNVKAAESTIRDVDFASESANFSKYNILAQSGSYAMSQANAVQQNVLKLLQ
The test is described as follows: ELISA; C. jejuni 81–176 flagella coated on Maxisorp plates (5 µg/ml in PBS); monomeric or pentameric VHH at 10 to 0.0001 µg/ml, 1 h at 37°C; detected with anti-His6-HRP; concentration of 50% maximum binding. The note with it: both partners purified. In general terms: ELISA stands for enzyme-linked immunosorbent assay.

Test [2] deals with T1, C. jejuni 81–176 flagella. In words: SPR; Biacore 3000; biotinylated flagella (700–900 RU) captured on an SA sensor chip; VHHs injected at 40 µl/min; 25°C; 10 mM HEPES pH 7.4, 150 mM NaCl, 3 mM EDTA, 0.005% P20; 1:1 interaction model. The note with it: both partners purified. In general terms: SPR reads the build-up and loss of mass on a sensor chip optically.

This note sets out measurements from publication PMC3877120, “Pentavalent Single-Domain Antibodies Reduce Campylobacter jejuni Motility and Colonization in Chickens” (PLoS ONE, 2013).

B1: FlagV1M (monomeric flagella-specific VHH FlagV1) (VHH)
VHH: QVKLEESGGGLVQAGGSRRLSCATSGLTFRNFHMAWFRQVAGKEREVVAAISWSRDRQYYPDPVKGRFTITRDNAKNTVYLQMNSLKPEDTAVYYCAARTASASGDWYKGSYQYWGQGTQVTVSS
notes: llama VHH from an immune phage display library; also called FlagV1 VHH; source: E. coli TG1, periplasm, purified (IMAC; Superdex 75 before SPR)
B1 returned a concentration giving a half-maximal response (EC50) in test [1] of 15.6 nM. In test [2], the affinity, expressed as Kd, was 20 nM; the koff is 0.002 s⁻¹; the kon amounted to 100000 M⁻¹ s⁻¹.

Broadly, the EC50 is the concentration that produces a half-maximal response. Read a high EC50 as a less potent agent. By Kd is commonly meant the concentration at which binding is half-saturated. Low values mean higher affinity, high ones lower affinity. Usually koff stands for the first-order rate constant of dissociation. As usually defined, the kon is a measure of how fast the partners come together. A lower kon goes with slow association.
